Test results taken from paper PMC3513567 (Molecular cell, 2012).
Changes are numbered by the printed parent chain. Blank lines part the entries; values can stand above or below the molecule they belong to.

What was measured:
[1] = biological target: truncated murine LEP-R construct (D1-D5) lacking the two membrane-proximal FnIII domains (murine); assay: ITC
[2] = biological target: T1, extracellular region (domains D1-D7) of murine LEP-R (murine, UniProt P48356 22-839); assay: ITC
T1 sequence (looked up): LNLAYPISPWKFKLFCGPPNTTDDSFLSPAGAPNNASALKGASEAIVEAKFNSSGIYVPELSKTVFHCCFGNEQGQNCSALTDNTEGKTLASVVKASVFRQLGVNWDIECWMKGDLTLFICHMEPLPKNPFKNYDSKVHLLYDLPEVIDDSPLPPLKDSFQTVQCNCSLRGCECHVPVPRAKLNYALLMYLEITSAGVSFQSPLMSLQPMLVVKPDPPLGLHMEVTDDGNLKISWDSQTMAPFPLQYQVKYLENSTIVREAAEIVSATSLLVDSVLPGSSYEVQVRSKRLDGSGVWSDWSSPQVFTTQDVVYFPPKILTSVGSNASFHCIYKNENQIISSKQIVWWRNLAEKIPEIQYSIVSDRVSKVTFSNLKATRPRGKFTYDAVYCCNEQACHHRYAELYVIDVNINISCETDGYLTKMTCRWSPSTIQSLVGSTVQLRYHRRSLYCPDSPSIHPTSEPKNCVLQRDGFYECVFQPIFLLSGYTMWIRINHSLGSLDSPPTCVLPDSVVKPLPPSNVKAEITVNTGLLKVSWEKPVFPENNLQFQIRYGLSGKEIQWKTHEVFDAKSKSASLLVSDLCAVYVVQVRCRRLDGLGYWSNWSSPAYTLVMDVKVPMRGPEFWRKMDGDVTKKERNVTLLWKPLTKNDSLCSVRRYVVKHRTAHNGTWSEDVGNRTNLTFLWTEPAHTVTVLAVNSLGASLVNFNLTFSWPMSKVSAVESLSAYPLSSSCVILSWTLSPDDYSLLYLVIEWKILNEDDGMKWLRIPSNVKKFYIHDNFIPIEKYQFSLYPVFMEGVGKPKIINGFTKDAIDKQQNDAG

[3] = biological target: T2, LEP-R[D1-D7] construct bearing the IgD mutation L370A (murine, UniProt P48356 22-839, L370A); assay: negative-stain single-particle electron microscopy
T2 sequence (looked up): T1 sequence (looked up) with L349A

truncated murine LEP-R construct (D1-D5) lacking the two membrane-proximal FnIII domains (murine), sequence (P48356 whole entry, the tested form may be a part): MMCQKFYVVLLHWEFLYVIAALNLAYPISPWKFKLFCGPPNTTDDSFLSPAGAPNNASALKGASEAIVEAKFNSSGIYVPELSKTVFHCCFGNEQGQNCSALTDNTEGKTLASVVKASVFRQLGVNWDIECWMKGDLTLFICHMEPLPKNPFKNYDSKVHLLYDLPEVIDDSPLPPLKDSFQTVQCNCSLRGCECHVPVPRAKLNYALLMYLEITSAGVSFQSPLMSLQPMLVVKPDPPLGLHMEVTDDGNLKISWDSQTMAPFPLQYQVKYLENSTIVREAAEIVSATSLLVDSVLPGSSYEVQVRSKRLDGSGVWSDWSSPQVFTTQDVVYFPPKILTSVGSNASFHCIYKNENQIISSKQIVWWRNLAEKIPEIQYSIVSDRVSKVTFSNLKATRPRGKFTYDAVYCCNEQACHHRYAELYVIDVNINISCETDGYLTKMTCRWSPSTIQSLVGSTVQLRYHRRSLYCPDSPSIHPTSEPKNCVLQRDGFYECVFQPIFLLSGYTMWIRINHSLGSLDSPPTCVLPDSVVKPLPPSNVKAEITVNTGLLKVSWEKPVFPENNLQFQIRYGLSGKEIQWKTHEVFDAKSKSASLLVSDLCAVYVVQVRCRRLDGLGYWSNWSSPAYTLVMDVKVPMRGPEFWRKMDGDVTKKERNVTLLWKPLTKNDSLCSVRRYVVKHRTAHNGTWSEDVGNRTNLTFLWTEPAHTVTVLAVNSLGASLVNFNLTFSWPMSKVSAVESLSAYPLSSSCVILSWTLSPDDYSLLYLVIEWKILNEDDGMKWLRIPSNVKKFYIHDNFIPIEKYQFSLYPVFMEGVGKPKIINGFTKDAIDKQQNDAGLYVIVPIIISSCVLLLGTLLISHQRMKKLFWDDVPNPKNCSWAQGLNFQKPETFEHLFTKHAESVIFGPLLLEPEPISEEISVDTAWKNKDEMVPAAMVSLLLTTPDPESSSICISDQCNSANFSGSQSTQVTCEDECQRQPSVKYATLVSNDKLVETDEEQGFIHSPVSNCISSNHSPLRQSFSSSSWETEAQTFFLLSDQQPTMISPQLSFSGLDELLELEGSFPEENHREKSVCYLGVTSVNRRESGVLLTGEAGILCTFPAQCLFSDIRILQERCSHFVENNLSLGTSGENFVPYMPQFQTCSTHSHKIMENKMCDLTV

Kd [1]: 17 nM
stoichiometry N (receptor:ligand) [1]: 1
Molecule: recombinant murine leptin (from UniProt P41160 22-167) (ligand)

stoichiometry N [2]: ~1 receptor:ligand
binding result [3]: binds
B1: recombinant murine leptin (ligand, UniProt P41160 22-167, looked up)
chain: VPIQKVQDDTKTLIKTIVTRINDISHTQSVSAKQRVTGLDFIPGLHPILSLSKMDQTLAVYQQVLTSLPSQNVLQIANDLENLRDLLHLLAFSKSCSLPQTSGLQKPESLDGVLEASLYSTEVVALSRLQGSLQDILQQLDVSPEC
